PMC2917185 (Nature structural & molecular biology, 2010)
Positions count from the first letter of the chain named. Names may count otherwise. “And” between values parts separate entries of the source, which are not always exact repeats. Equal values may be shown once. Read-outs that look alike come from different tables or passages of the source.

How the values were obtained:
[1] = target: LHCP (light-harvesting chlorophyll a/b binding protein), fluorescein-labeled (UniProt P07371 38-269); assay: fluorescence polarisation
[2] = target: LHCP (light-harvesting chlorophyll a/b binding protein), fluorescein-labeled (UniProt P07371 38-269); assay: fluorescence polarisation; remark: listed apart in the source

B1: cpSRP (chloroplast signal recognition particle, cpSRP43 with cpSRP54) (complex)
chain 1: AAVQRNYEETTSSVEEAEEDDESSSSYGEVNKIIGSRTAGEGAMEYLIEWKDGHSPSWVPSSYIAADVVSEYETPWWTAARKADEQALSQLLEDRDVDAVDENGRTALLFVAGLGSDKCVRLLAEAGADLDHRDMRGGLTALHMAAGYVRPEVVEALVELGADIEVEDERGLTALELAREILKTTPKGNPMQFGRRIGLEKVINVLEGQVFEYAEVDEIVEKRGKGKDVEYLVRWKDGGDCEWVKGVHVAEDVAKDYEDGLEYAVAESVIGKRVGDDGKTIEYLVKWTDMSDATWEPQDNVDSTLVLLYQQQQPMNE
chain 2: EMFGQLTGGLEAAWSKLKGEEVLTKDNIAEPMRDIRRALLEADVSLPVVRRFVQSVSDQAVGMGVIRGVKPDQQLVKIVHDELVKLMGGEVSELQFAKSGPTVILLAGLQGVGKTTVCAKLACYLKKQGKSCMLIAGDVYRPAAIDQLVILGEQVGVPVYTAGTDVKPADIAKQGLKEAKKNNVDVVIMDTAGRLQIDKGMMDELKDVKKFLNPTEVLLVVDAMTGQEAAALVTTFNVEIGITGAILTKLDGDSRGGAALSVKEVSGKPIKLVGRGERMEDLEPFYPDRMAGRILGMGDVLSFVEKATEVMRQEDAEDLQKKIMSAKFDFNDFLKQTRAVAKMGSMTRVLGMIPGMGKVSPAQIREAEKNLLVMEAMIEVMTPEERERPELLAESPERRKRIAKDSGKTEQQVSALVAQIFQMRVKMKNLMGVMEGGSIPALSGLEDALKAEQKAPPGTARRKRKADSRKKFVESASSKPGPRGFGSGN
- Kd [1]: 76 nM and 128 nM

B2: cpSRP-R161A (cpSRP assembled from cpSRP43-R161A and cpSRP54) (complex)
chain 1: B1 chain 1 with R105A
chain 2: B1 chain 2
- Kd [1]: 1200 nM

B3: cpSRP-Y204A (cpSRP assembled from cpSRP43-Y204A and cpSRP54) (complex)
chain 1: B1 chain 1 with Y148A
chain 2: B1 chain 2
- Kd [1]: > 5000 nM

B4: cpSRP43 ΔCD2ΔCD3 (CD1–Ank4 fragment) (domain or fragment)
chain: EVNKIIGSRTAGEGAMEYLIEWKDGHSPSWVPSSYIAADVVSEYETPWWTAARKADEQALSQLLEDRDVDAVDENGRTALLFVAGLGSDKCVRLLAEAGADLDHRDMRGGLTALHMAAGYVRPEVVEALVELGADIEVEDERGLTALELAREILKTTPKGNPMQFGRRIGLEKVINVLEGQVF
- Kd [2]: > 10000 nM
